# Reference: patent US20240376207A1 (JIANGSU HENGRUI PHARMACEUTICALS, published 2024)
# T1: human PVRIG expressed on cells (human, UniProt Q6DKI7 41-326)
# T1 construct: whole, on cells; also called Human PVRIG FACS; cells overexpressing human PVRIG
# T1 sequence (looked up): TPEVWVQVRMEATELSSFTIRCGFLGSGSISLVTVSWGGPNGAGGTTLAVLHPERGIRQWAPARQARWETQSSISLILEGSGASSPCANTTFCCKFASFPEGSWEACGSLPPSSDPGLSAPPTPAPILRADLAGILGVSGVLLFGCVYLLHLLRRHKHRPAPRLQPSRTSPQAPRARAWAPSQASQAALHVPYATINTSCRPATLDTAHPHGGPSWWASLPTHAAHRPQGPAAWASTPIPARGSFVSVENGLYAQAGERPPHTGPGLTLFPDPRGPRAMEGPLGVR
# T2: cynomolgus monkey PVRIG expressed on cells (cynomolgus monkey, UniProt A0A2K5WVV8 1-322)
# T2 construct: whole, on cells; also called Monkey PVRIG FACS; cells overexpressing cynomolgus monkey PVRIG
# T2 sequence: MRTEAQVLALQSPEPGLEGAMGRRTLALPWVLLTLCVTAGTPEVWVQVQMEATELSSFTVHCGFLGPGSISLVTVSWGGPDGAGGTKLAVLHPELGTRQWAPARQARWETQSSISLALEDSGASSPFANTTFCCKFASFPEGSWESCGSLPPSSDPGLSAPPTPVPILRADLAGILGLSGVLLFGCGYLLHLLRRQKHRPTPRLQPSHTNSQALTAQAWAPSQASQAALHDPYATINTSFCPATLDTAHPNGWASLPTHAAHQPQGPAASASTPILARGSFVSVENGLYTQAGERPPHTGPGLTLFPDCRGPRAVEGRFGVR
# T3: his-tagged human PVRIG (h-PVRIG-his) recombinant protein (human, UniProt Q6DKI7 41-171, limits assumed)
# T3 construct: bought from Acrobiosystems; also called Human PVRIG-his; human PVRIG recombinant protein; not shown: his tag
# T3 sequence (looked up): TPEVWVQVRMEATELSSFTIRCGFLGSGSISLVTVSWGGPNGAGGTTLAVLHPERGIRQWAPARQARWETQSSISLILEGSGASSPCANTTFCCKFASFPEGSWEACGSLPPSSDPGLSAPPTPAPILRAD
# T4: human TIGIT recombinant protein (human, UniProt Q495A1 22-141, limits assumed)
# T4 construct: construct not described; also called human TIGT recombinant protein
# T4 sequence (looked up): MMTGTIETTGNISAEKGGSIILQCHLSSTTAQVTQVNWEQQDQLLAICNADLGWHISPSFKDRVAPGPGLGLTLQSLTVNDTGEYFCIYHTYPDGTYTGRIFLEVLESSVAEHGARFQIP
# Columns and labels:
# [1] = biological target: T1, human PVRIG expressed on cells; assay: FACS, HEK293 cells overexpressing target
# Source text: (§1) A flow cytometer (FACS) was used to detect binding properties of anti-PVRIG antibodies. A cell strain overexpressing human or cynomolgus monkey PVRIG was constructed, and after the addition of the antibody, the activity of the binding of the antibody to the antigen was detected by the addition of a secondary antibody.
# (§2) The expression plasmid carrying human or cynomolgus monkey PVRIG gene sequence was transfected into HEK293 cells, and the over-expressing stable transfection monoclonal cell strain was obtained by antibiotic screening and infinite dilution. Overexpressing cells were seeded into a 96-well plate at 2×10⁵ cells/per well. The cells were centrifuged at 300 g for 5 min, the supernatant was then removed, 100 μL of the test antibody was added, and the mixture was incubated at 4° C. for 1 h. The mixture was centrifuged, the supernatant was removed, the plate was washed 3 times with 200 μL of wash buffer (PBS+2% FBS), and then 100 μL of an anti-human IgG secondary antibody (Invitrogen, A-11013) labeled with Alexa Fluor 488 diluted at 1:500 was added. The mixture was incubated at 4° C. for 1 h. The plate was centrifuged, and the supernatant was removed. The plate was washed 3 times with 200 μL of wash buffer (PBS+2% FBS). The cells were resuspended in 100 μL of PBS and tested on a flow cytometer (BD FACS Calibur or BD FACS Canto_II).
# [2] = biological target: T2, cynomolgus monkey PVRIG expressed on …; assay: FACS, HEK293 cells overexpressing target
# Source text: as §1, §2
# [3] = biological target: T3, his-tagged human PVRIG (h-PVRIG-his) …; assay: BLI (Fortebio), antibody on Protein A sensor, 1:1 fit
# Method: A Protein A biosensor (Fortebio, #18-5010) was immersed in 200 μL of KB buffer (PBS, pH 7.4, 0.02% tween-20, 0.1% BSA) for 60 s for the wetting treatment. Then, the anti-PVRIG antibody was diluted to 10 μg/mL with the KB buffer, and the sensor was immersed in 200 μL of the solution until the reading was 1.2 nm. The sensor was immersed in the KB buffer for 100 s to elute excess antibody. The his-tagged human PVRIG was diluted in a 2-fold gradient to 64 nM-4 nM with the KB buffer. The sensor was immersed in the solution for 300 s for binding. The sensor was immersed in the KB buffer for 600 s for dissociation. The data were fitted in a dynamic 1:1 binding mode.
# [4] = biological target: T1, human PVRIG expressed on cells; assay: cell-based or functional assay
# [5] = biological target: T4, human TIGIT recombinant protein; assay: ELISA, coated antigen
# Method: (§3) A human, cynomolgus monkey, or mouse PVRIG protein (at a concentration of 1 μg/mL) was coated on a 96-well microplate at 100 μL per well, and incubated overnight at 4° C. The plate was washed three times with wash buffer at 250 μL per well. For each wash, the plate was shaken for 10 s to ensure adequate cleaning. A blocking solution (PBS+0.05% Tween20+1% BSA) was added at 300 μL/well, and the plate was incubated at room temperature for 1 h. The plate was washed three times with wash buffer at 250 μL per well. For each wash, the plate was shaken for 10 s to ensure adequate cleaning. Dilutions of the test anti-PVRIG antibodies were added at 100 μL/well. The plate was incubated at 37° C. for 1 h. The plate was washed three times with wash buffer at 250 μL per well. The […] anti-human IgG secondary antibody (Sigma, A8667) was added at 100 μL per well. The plate was incubated at 37° C. for 1 h. The plate was washed three times with wash buffer at 250 μL per well. TMB was added at 100 μL/well, and the plate was incubated in the dark for 15 min. 0.16 M sulfuric acid was added at 50 μL/well. The OD values at 450 nm were read by using a Thermo MultiSkanFc microplate reader, and the EC₅₀ values of the binding of the anti-PVRIG antibodies to PVRIG were calculated.
# (§4) Similarly to Examples 4, 5 and 6, the binding of humanized anti-PVRIG/TIGIT bispecific antibodies to human and cynomolgus monkey TIGIT and blocking of binding of human TIGIT to ligand were detected, where PVRIG protein was replaced with TIGIT and PVRL2 was replaced with PVR.
# [6] = biological target: cynomolgus monkey TIGIT recombinant protein (cynomolgus monkey, UniProt A0A7N9I9V4 89-209); assay: ELISA, coated antigen
# Method: as §3, §4
# [7] = biological target: T1, human PVRIG expressed on cells; assay: cell-based or functional assay; remark: listed apart in the source
# Chain of cynomolgus monkey TIGIT recombinant protein (A0A7N9I9V4 entry or part of it): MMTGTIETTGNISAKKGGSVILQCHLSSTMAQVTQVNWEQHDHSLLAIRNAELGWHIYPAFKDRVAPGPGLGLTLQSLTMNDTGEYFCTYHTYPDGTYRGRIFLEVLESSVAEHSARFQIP
Binder,EC50 [1] [nM],EC50 [2] [nM],Kd [3] [nM],koff [3] [s⁻¹],kon [3] [M⁻¹ s⁻¹],PVRIG reporter gene cell activity EC50 [4] [nM],binding result [5],binding result [6],binding result [2],"MLR IFNγ (pg/mL), 4 nM antibody [7] [pg/mL]","MLR IFNγ (pg/mL), 20 nM antibody [7] [pg/mL]","MLR IFNγ (pg/mL), 100 nM antibody [7] [pg/mL]",EC50 [5] [nM],EC50 [6] [nM]
"anti-PVRIG antibody 39 (antibody, human IgG4 S228P, F234A L235A, V domains shown, no light chain) VH: QVQLVESGGGSVQAGGSLRLSCAASRYTSRTDCMGWFRQAPGKEREGVAHIDSDGIPRYVESVKGRFTISQDHAKNTLYLQMNSLKPEDSATYYCVVGFKFGDYCAPNDWGQGTQVTVSS",0.004,6.97,0.696,0.000169,242000,0.06,–,–,–,–,–,–,–,–
"humanized anti-PVRIG/TIGIT bispecific antibody 1708-20H5 (bispecific antibody, human IgG4 S228P, kappa) heavy: not shown light: DIQMTQSPSSLSASVGDRVTITCRASENIYSYLAWYQQKPGKSPKLLIYNARTLAEGVPSRFSGSGSGTDFTLTISSLQPEDFATYYCQYHSGSPLPFGGGTKVEIKRTVAAPSVFIFPPSDEQLKSGTASVVCLLNNFYPREAKVQWKVDNALQSGNSQESVTEQDSKDSTYSLSSTLTLSKADYEKHKVYACEVTHQGLSSPVTKSFNRGEC",–,–,–,–,–,–,–,–,–,–,–,–,0.145,0.112
"humanized anti-PVRIG/TIGIT bispecific antibody 1708-30H2 (bispecific antibody, human IgG4 S228P, kappa) heavy: not shown light: DIQMTQSPSSLSASVGDRVTITCRASENIYSYLAWYQQKPGKSPKLLIYNARTLAEGVPSRFSGSGSGTDFTLTISSLQPEDFATYYCQYHSGSPLPFGGGTKVEIKRTVAAPSVFIFPPSDEQLKSGTASVVCLLNNFYPREAKVQWKVDNALQSGNSQESVTEQDSKDSTYSLSSTLTLSKADYEKHKVYACEVTHQGLSSPVTKSFNRGEC",–,–,–,–,–,–,–,–,–,–,–,–,0.153,0.114
"anti-PVRIG antibody 38 (antibody, human IgG4 S228P, F234A L235A, V domains shown, no light chain) VH: QVQLVESGGGSVQAGGSLRLSCAASPSTYGPSDMAWFRQAPGKQREGVATISAAGRLTYYTDSVRGRFTISRDNAKNTMYLQMNSLKPEDTAMYYCAADFAGGSSLFADYKYWGQGTQVTVSS",0.24,0.34,2.17,0.000287,132000,0.2,–,–,–,1390,2020,2130,–,–
"anti-PVRIG antibody 30 (antibody, human IgG4 S228P, F234A L235A, V domains shown, no light chain) VH: HVQLVESGGGSVQAGGSLRLSCEASGYSYSGDCMGWFRRAPGKERDEGVATIDNAGRIKYADSVKGRFTISHGNGKYILYLQMNSLKPEDTDMYYCAAGWTFGGNCSPADWGQGTQVTVSS",–,0.02,0.723,0.000205,284000,0.06,–,–,–,1680,1910,1580,–,–

# Further binders by falling Kd [3], results first:
EC50 [1] [nM],EC50 [2] [nM],Kd [3] [nM],koff [3] [s⁻¹],kon [3] [M⁻¹ s⁻¹],PVRIG reporter gene cell activity EC50 [4] [nM],binding result [5],binding result [6],binding result [2],"MLR IFNγ (pg/mL), 4 nM antibody [7] [pg/mL]","MLR IFNγ (pg/mL), 20 nM antibody [7] [pg/mL]","MLR IFNγ (pg/mL), 100 nM antibody [7] [pg/mL]",EC50 [5] [nM],EC50 [6] [nM],Binder
2.13,–,0.219,–,–,0.74,no binding,no binding,no binding,912,1420,2350,–,–,"positive antibody Tab5 (antibody, human IgG4 S228P, kappa, F234A L235A, V domains shown, Variable regions of CPA.7.021 (WO2016134333A1) on human IgG4 (S228P/F234A/L235A/K447A) and human kappa constant regions) VH: EVQLVESGGGVVKPGGSLRLSCAASGFTFGTSSMNWVRQAPGKGLEWVAVISFDGTEIHYADSVKGRFTISRDNSKSTVFLQMNSLRPDDTALYYCAKGSGNIYFYSGMDVWGQGTTVTVSS VL: DIQMTQSPSTLSASVGDRVTITCRAGQSISGWLAWFQQKPGKAPNLLIYETSTLESGVPSRFSGSGSGTEYTLTISSLQPDDFATYYCQQYYSYPLTFGQGTKVEIKR"
0.01,2.23,0.2,5.22e-05,261000,0.04,–,–,–,1500,2220,1800,–,–,"anti-PVRIG antibody 151 (antibody, human IgG4 S228P, F234A L235A, V domains shown, no light chain) VH: HVQLVESGGGSVQAGGSLRLSCVASASGFTYRPYCMAWFRQAPGKEREAVAGIDIFGGTTYADSVKGRFTASRDNAGFSLFLQMNDLKPEDTAMYYCAAGDSPDGRCPPLGQGLNYWGQGTQVTVSS"
